Non-standard residues stand in square brackets, D forms with d. pGlu = O=C1CC[C@@H](C(=O)O)N1; azaGly = NNC(=O)O A value given as a limit tells only on which side of the number the result lay.

We go through 15 molecules from patent US20020065226A1.

Test [1] deals with chorionic peptidase-1 (C-ase-1) (human). Description: competitive inhibition of C-ase-1 degradation of GnRH.
The target is the same in test [2]. Description: inhibition of C-ase-1 degradation of GnRH (competitor).
For test [3] the target is unchanged. Description: competitive inhibition of C-ase-1 degradation of GnRH (competitor).
Test [4] has the same target. Put plainly: C-ase-1 degradation assay, Lineweaver-Burke double reciprocal plot.
Test [5] concerns the target baboon ovarian enzymatic activity that degrades GnRH. Description: degradation assay with baboon ovarian homogenate, double reciprocal plot.
For test [6], the target named is chorionic peptidase-1 (C-ase-1) (human). Description: competitive inhibition of C-ase-1 degradation of mammalian GnRH (competitor).
The target of test [7] is human placental GnRH receptor (human) (UniProt P30968). Put plainly: competitive radioreceptor assay on human term placental membranes, radiolabeled Buserelin as competitor.
For test [8] the target is unchanged. Description: competitive radioreceptor assay, human term placental GnRH receptors, 125I-Buserelin as competitor.
Test [9] addresses chorionic peptidase-1 (C-ase-1) (human). Description: cell-based or functional assay.
In test [10] the target is baboon ovarian GnRH receptor (baboon). Description: radioligand binding, baboon ovary membrane fraction.
Test [11] addresses baboon endometrium GnRH receptor (baboon). Description: receptor binding, baboon endometrium (stroma and epithelium).
The target of test [12] is human placental GnRH receptor (human) (UniProt P30968). Description: homologous radioreceptor assay, average of three human term placental membrane preparations.
In test [13] the target is baboon ovarian GnRH receptor (baboon). Put plainly: radioreceptor assay, baboon ovary membrane fraction, radiolabeled D-Arg(6)-chicken II GnRH-aza-Gly(10)-amide.
Test [14] deals with human placental GnRH receptor (human) (UniProt P30968). Put plainly: radioreceptor assay on human term placental membranes, radiolabeled D-Arg(6)-chicken II GnRH-aza-Gly-amide as label.
Test [15] shares this target. Description: homologous radioreceptor assay on human term placental membranes, radiolabeled D-Arg-chicken II GnRH-aza-Gly-amide as label.
Test [16] shares this target. Put plainly: homologous radioreceptor assay, placenta 2 membrane preparation, radiolabeled D-Arg(6)-chicken II GnRH-aza-Gly-amide as label.
The target is the same in test [17]. Description: competitive radioreceptor assay on human term placental membranes, radiolabeled Buserelin as competitor, double reciprocal plot.

For Antide (peptide), in [1], the fold less potent than GnRH worked out at 3 fold and the fold more potent than salmon or chicken II GnRH was 2 fold. Also, the relative potency compared to GnRH (relative potency) in test [2] came out at 0.6. Also, the Ki (in general, the equilibrium dissociation constant of an inhibitor or competing ligand from its target) in test [3] came to 120 nM.
In [3], “D-Arg (6)-salmon GnRH-aza-Gly (10)-amide (peptide)” had a Ki of 200 nM.
In [3], “mammalian GnRH (from UniProt P01148 24-33) (peptide)” had a Ki of 30 nM. In addition, the Ks in test [4] and in test [5] was 30 nM throughout.
In test [2], chicken II GnRH (peptide) had a relative potency compared to GnRH (relative potency) of 0.2. Further, in [3], the Ki is 200 nM. The same molecule showed a potency relative to mammalian GnRH in [6] of 0.167 fold. Besides, the fold potency over mammalian GnRH in [7] came out at 3 fold.
In test [3], “Mammalian D-Trp (6) GnRH (from UniProt P01148 24-92) (peptide)” registered an inhibition constant Ki of 20 nM.
Regarding salmon GnRH (peptide), the relative potency compared to GnRH (relative potency) in test [2] stood at 0.2. The molecule further registered an inhibition constant (Ki) in test [3] of 300 nM.
For the molecule chicken II GnRH-ethylamide (peptide), the fold less active than GnRH in [1] is over 200 fold. Further, the Ki in test [3] was determined as 130 nM. In test [8], the Kd (usually the equilibrium constant for the complex coming apart) was determined as 30 nM and the fold activity over GnRH stood at 33 fold.
On to “des-Gly10, D-Leu6-GnRH-ethylamide (from UniProt P01148 24-92) (peptide)”, for which the inhibition constant (Ki) in test [3] turned out to be 80 nM.
In [2], lamprey GnRH (peptide) displayed a relative potency compared to GnRH (relative potency) of 1.5. The molecule further displayed an inhibitory constant (Ki) in test [3] of 20 nM.
On to “9OH-Pro-GnRH (from UniProt P01148 24-92) (peptide)”, for which the relative potency compared to GnRH (relative potency) in test [2] was 1.5.
In [3], “des-Gly10-GnRH-ethylamide (from UniProt P01148 24-92) (peptide)” came in with a Ki of 70 nM. In other words, the double-digit nanomolar range.
In test [1], chicken I GnRH (peptide) had a fold less potent than GnRH of 3 fold and a fold more potent than salmon or chicken II GnRH of 2 fold. The relative potency compared to GnRH (relative potency) in test [2] stood at 0.6. Moreover, the inhibition constant (Ki) in test [3] came to 80 nM.
Consider “6D-Trp-GnRH-10 ethylamide (from UniProt P01148 24-32) (peptide)”, for which the Ki in [3] was determined as 60 nM. This lies in the double-digit nanomolar range.
In the case of “Buserelin (from UniProt P01148 24-32) (peptide)”, in [9], the rate of degradation by C-ase-1 (fold of the rate for mammalian GnRH) turned out to be 0.25. The molecule also had a Ki in [3] of 110 nM.
With [pGlu]HWSH[dR]WYP[azaGly]-NH2 (also: also used radioiodinated as label) [D-Arg(6)-chicken II GnRH-aza-Gly(10)-amide], in test [10], the specific activity of binding, fold over placental membrane preparations is 50 to 100 fold. For the same molecule, the dissociation constant Kd stood at 60 nM in test [11]; 93 nM in test [12]; 10 nM in [13]; 68 nM in test [16]; 175 nM in test [17]. Also, the fold affinity over chicken II GnRH or Buserelin in test [7] came out at 2 fold. In addition, the fold affinity over mammalian GnRH was 60 fold in test [7] and 25 fold in test [14]. Further, the fold change of affinity against the assay with the Buserelin label in test [15] turned out to be 2 fold.
